Measurements: the supplement of paper PMC9170038

System: MS2 coat protein
Experiment: apparent KD of MS2 coat protein; designed switch direction (-1 OFF switch, 1 ON switch): 1; higher = weaker reporter binding
Summary of the method: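 Designed RNA switches were transcribed on Illumina chips by stalled E. coli RNA polymerase and titrated with SNAP-549-labelled MS2 coat protein from 0.7 or 1.5 nM, doubling to 3 µM. Step length ran from 0.8–1.5 h at the lowest concentration to 10–20 min at the highest. The apparent KD is the median over clusters for each design, from curve-fitted normalised cluster fluorescence.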

[1] = input ligand: microRNA oligo, concentration not stated
[2] = Eterna round: R95, input ligand: FMN 200 uM
[3] = Eterna round: R95, input ligand: microRNA oligo, concentration not stated
[4] = Eterna round: R95, input ligand: none

Sequence | apparent KD of MS2 coat protein (input ligand: FMN 200 uM) | apparent KD of MS2 coat protein [1] | apparent KD of MS2 coat protein (input ligand: none) | apparent KD of MS2 coat protein [2] | apparent KD of MS2 coat protein [3] | apparent KD of MS2 coat protein [4]
GCCAUCGAGUGAGGAUAUGGCACCGUUUCGGUGCCAGAAGGCAUGUCAAUUGACAUGAGGAUCACCCAUGUAUUAUCGAUGGCA [JL Fiskers NG1ss - 33 mod 4] (Eterna round: R96, puzzle: Same State NG 1) | 75.4 nM | 556 nM | 835 nM | – | – | –
AUUGCUUACGCAGGAUAUGAUGCGAAAAUUGCGUCAGAAGGGUGAAGUAACUCAUUGCAACAGGACAUGAGGAUCACCCAUGUC [SameState NG1 #89] (Eterna round: R96, puzzle: Same State NG 1) | 105 nM | 250 nM | 681 nM | – | – | –
GCUCGAUGAUAGGCCUACAUGAGGAUCACCCAUGUAACUGGGCAGGAUAUCUAAAUGCAGAAUGUAGAGAAGGGCCCGUCGAGC [SameState NG3 #53] (Eterna round: R96, puzzle: Same State NG 3) | 220 nM | 86.8 nM | 230 nM | – | – | –
GGAGCCGGCACUGAGGAUAUUCAUAUUAAAACAUGAGGAUCACCCAUGUAGGCCAGAAGGCCUUGGGAGAAGGCGGGUCGGCCCG [Bibimoar - 3] (Eterna round: R96, puzzle: Same State 2) | 22.1 nM | 222 nM | 258 nM | – | – | –
AGAUGUUAAUUAGGAUAUGGUCACAUGAGGAUCACCCAUGUAACGAUGAUACGAUGUGGUCAAGACUAGAAGGGAUCGCUAACA [SameState NG2 #72] (Eterna round: R96, puzzle: Same State NG 2) | 204 nM | 86.4 nM | 155 nM | – | – | –
AAAAUGGCAUGUUACAUGAGGAUCACCCAUGUGCCGUCAACUGAGGAUAUGGUGCUGUAGAAGAAUCAGAAGGUAGUCAUUUAA [AK SSNG3-V2-27] (Eterna round: R96, puzzle: Same State NG 3) | 22.6 nM | 15.8 nM | 27 nM | – | – | –
AACCCGAAGGGAGGAUAUGGCACCUUAUUGGUGCCAGAAGGUCCUCACAUGAGGAUCACCCAUGUGGGCCGGUCGAAAGACCGG [Fiskers NG1ss - 12] (Eterna round: R96, puzzle: Same State NG 1) | 532 nM | 407 nM | 500 nM | – | – | –
UGACACACGGCAGGAUAUCGUUAGCAAAGCUAACGAGAAGGGCCUCAUGUCGUGGAAACGUGACAUGAGGAUCACCCAUGUUGC [Omei SS(NG)1 Cv10] (Eterna round: R96, puzzle: Same State NG 1) | 204 nM | 12.4 nM | 53.7 nM | – | – | –
UUAAUAAAGUAAGGAUAUACAUGAGGAUCUCUCGUAGAAGGUACUAUACAUGAGGAUCACCCAUGUGCCGGUCCGUAGACUGGA [Mat - Same State NG 1 - JL mod - D7] (Eterna round: R96, puzzle: Same State NG 1) | – | 124 nM | – | – | – | –
UCGAGCGUACUUGCAGACAUGAGGAUCACCCAUGUAAAUGGGAAGGAUAUGGUACCGUUUCGGUACCAGAAGGUCCUAGGUGCU [salish99_SSNG3_r04_306] (Eterna round: R96, puzzle: Same State NG 3) | 250 nM | 327 nM | 1290 nM | – | – | –
CCAUAACAGUGAGGAUAUCGUUGCGAUAAGUGACGAGAAGGCAUUCAUGUGAAAUAAACAUACAUGAGGAUCACCCAUGUUGUA [Omei SS(NG)1 B] (Eterna round: R96, puzzle: Same State NG 1) | 18.2 nM | 17.1 nM | 20.6 nM | – | – | –
UUAGUCAUGUAAGGAUAUGCAGCCGAAACGGCUGCAGAAGGUACUAUAAUUACAUGAGGAUCACCCAUGUUAUAAAAUAAAUAU [Mat - Same State NG 1 - JL mod - D63] (Eterna round: R96, puzzle: Same State NG 1) | 22.9 nM | 25.6 nM | 48 nM | – | – | –
AACAAUCUAUCUGAGGAUAUCAUGAAAAAAACAUGAGGAUCACCCAUGUGCAGGAAAACUGCAUAUGAGAAGGCAGAUAGAUUGA [SS2: 1101] (Eterna round: R96, puzzle: Same State 2) | – | 490 nM | – | – | – | –
UGGCAACAUGAGGAUCACCCAUGUCAAACUAAUCGAGGAUAUGGGAACGAACAAGAGAAACUAGAAGGCGAACUUG [Altered State 1-11 - Jieux - Same State 1] (puzzle: Same State 1) | – | – | – | 122 nM | 137 nM | 118 nM
UUAUAACAUGAGGAUCACCCAUGUCAACAAAGUCGAGGAUAUGGGCAAUUAUUAUUAGAACCAGAAGGCGAAAAUU [Mat - Same State 1 - Mod of UCT - D29] (puzzle: Same State 1) | – | – | – | 52.1 nM | 227 nM | 587 nM
CGUAGGUAGCUGGAGGAUAUCCGAGUGGUAACAUGAGGAUCACCCAUGUGAUGUGAGGAACAUGAGGAGAAGGCUAGCUGCCUGC [JL-ss2-3.12 JL mod] (puzzle: Same State 2) | – | – | – | 23.1 nM | 37.5 nM | 38.2 nM

Sequence | apparent KD of MS2 coat protein (input ligand: FMN 200 uM) | apparent KD of MS2 coat protein [1] | apparent KD of MS2 coat protein (input ligand: none) | apparent KD of MS2 coat protein [2] | apparent KD of MS2 coat protein [3] | apparent KD of MS2 coat protein [4]
UUCCCAUCGGGAGGAUAUGGAACCUUAUUGGUUCUAGAAGGUCCAACAUGAGGAUCACCCAUGUGGGAGUGGUCUAAUGACCAC [SS NG10LRO02] (Eterna round: R96, puzzle: Same State NG 1) | 117 nM | 141 nM | 159 nM | – | – | –
AGUCCAGCCUGAGCUGGACGAAAGCAUGUACAUGAGGAUCACCCAUGUCAUGUACAAGCUUUUUGCUCGUCUUAAAA [Zipper 46 - 4] (puzzle: Sensor for hsa-mir-208a) | – | – | – | 482 nM | 15 nM | 532 nM
AUAGUUUCCGAAGGAUAUGAUGAGGAUCACCCAUCAGAAGGUUGGCUAUUGGGCGGACAUGAGGAUCACCCAUGUCUUUCUGUU (Eterna round: R96, puzzle: Same State NG 1) | 12.7 nM | 10.7 nM | 18 nM | – | – | –
AACAGUCGGCGAGGAUAUGGACGUACGAACUUACCCGUGCGGCUCACAUGAGGAUCACCCAUGUUCUAGAAGGCGCCACUGAAA [Atbeon] (Eterna round: R96, puzzle: Same State NG 2) | 12.2 nM | 63.4 nM | 88.8 nM | – | – | –
GUAGCAUACCGAGGAUAUUCAUAAUACAUGAGGAUCACCCAUGUUAAUAAUAGGCGAAAGCCUUGGGAGAAGGCGGAAUGCUAC [Xeonanis - 20 Mod69] (Eterna round: R96, puzzle: Same State NG 2) | 11.4 nM | 9.05 nM | 16.2 nM | – | – | –
UUCUUACAUGAGGAUCACCCAUGUGUUGUCGUGGGAGGAUAUCCUGGUUCGGUGGCGUUGGGAGAAGGCCUAUGUU [× ×•×ª×• ×ž×“×™× ×” × ×—×ª-19] (puzzle: Same State 1) | – | – | – | 476 nM | 134 nM | 376 nM
AACAAUCUAUCUGAGGAUAUCAUGAAAUAAACAUGAGGAUCACCCAUGUGCAGGAAAACUGCUUAUGAGAAGGCAGAUAGAUUGA [salish99_ss2_r3_047] (puzzle: Same State 2) | – | – | – | 10.3 nM | 12.6 nM | 12.2 nM
CGGCUCCGUGGAGGAUAUGGGCCUGCCCGGGAUACCGGGCCUAACACAUGAGGAUCACCCAUGUCCCAGAAGGCCGCUGGAGCC [Cebeladi] (Eterna round: R96, puzzle: Same State NG 2) | 12.7 nM | 26.2 nM | 52.3 nM | – | – | –
UUGAUGAACUGAGGAUAUCGAGUCGUCUGAUUAUACAUGAGGAUCACCCAUGUGGGUUGUGGUAUCGAGAAGGCAGAUUACUUA [JR_SSNG2_Sub032] (Eterna round: R96, puzzle: Same State NG 2) | 82.8 nM | 117 nM | 260 nM | – | – | –
CUGAGCGAUCAAGGAUAUCACGUCGUUUAGACGUGAGAAGGUGAUCCAUACAUGAGGAUCACCCAUGUAUAACAUGAAGCUCAG [SSNG1/8-A3] (Eterna round: R96, puzzle: Same State NG 1) | 646 nM | 57 nM | 1540 nM | – | – | –
UGUUGUAUUACAGGAUAUCUAGUAUUGUUAUUUAGAGAAGGGUAUUCACAUGAGGAUCACCCAUGUAUAUACGAGGAAGUUGUG [JMF's solution 40] (Eterna round: R96, puzzle: Same State NG 1) | – | 28.8 nM | – | – | – | –
GUUAGGAAUCUAGCAAACAUGAGGAUCACCCAUGUAAGUGGGAAGGAUAUGGUACAGAAACUGUACCAGAAGGUCUUAUUGUUU [Omei SS(NG) 3 AV8] (Eterna round: R96, puzzle: Same State NG 3) | 602 nM | 17.5 nM | 280 nM | – | – | –
CGUUCUUACUCGGUACGGUGAGUAGAGGAACAUGAGGAUCACCCAUGUAUGAGCUUUUUGCUCGUGAUUAACAGUAG [JR_SHM208a_Sub014] (puzzle: Sensor for hsa-mir-208a) | – | – | – | 58 nM | 63.3 nM | 105 nM
UUAAUGAUGUAAGGAUAUACAUGAGGAUUUCUCGUAGAAGGUACAAGACAUGAGGAUCACCCAUGUAUCGCUCCGUAGAGCGUA [JL SSNG1 1.10] (Eterna round: R96, puzzle: Same State NG 1) | 652 nM | 101 nM | 287 nM | – | – | –
AUUAAACAUGAGGAUCACCCAUGUCAACAAAGUCGAGGAUAUGGGCAAAUAAUAUAAGAACCAGAAGGCGAAUAAU [salish99_ss1_r3_058] (puzzle: Same State 1) | – | – | – | 32.1 nM | 440 nM | 275 nM
